The text below walks through data of patent US20210087522.

For data set [1], the target named is T1, AFACP, ACP of the FAS from Anabaena.
T1 chain: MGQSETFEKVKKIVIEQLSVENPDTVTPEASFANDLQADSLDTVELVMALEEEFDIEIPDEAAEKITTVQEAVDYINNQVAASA

For data set [2], the target named is T2, APNPCP, CP of an uncharacterized NRP/PK gene cluster from Anabaena.
T2 chain: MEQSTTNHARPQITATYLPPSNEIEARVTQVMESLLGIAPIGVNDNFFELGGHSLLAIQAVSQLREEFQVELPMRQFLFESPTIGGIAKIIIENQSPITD

The target of data set [3] is T3, MACP, CP of an uncharacterized NRP/PK gene cluster from M. aeruginosa NIES843.
T3 chain: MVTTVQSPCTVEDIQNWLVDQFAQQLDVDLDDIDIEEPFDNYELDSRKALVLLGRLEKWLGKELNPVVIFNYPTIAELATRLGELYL

The target in data set [4] is T4, SFACP, ACP of the FAS from Synechocystis.
T4 chain: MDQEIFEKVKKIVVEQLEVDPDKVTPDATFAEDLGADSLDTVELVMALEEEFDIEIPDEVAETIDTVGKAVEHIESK

Data set [5] concerns the target ScACP, ACP of a putative concanamycin gene cluster from Streptomyces coelicolor A(3)2.
Data set [6] concerns the target T5, SsPCP, PCP of a thaxtomin cluster from Streptomyces scabiei 87.22.
T5 chain: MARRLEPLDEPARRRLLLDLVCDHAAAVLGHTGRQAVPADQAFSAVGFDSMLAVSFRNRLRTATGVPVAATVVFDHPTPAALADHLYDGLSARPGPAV

In data set [7] the target is T6, APACP, ACP of the glycolipid PKS in Anabaena.
T6 chain: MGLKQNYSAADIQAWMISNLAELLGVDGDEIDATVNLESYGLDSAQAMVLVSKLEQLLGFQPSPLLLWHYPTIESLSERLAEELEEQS

The target in data set [8] is AprACP, ACP of the apratoxin (PK/NRP) gene cluster in Lyngbya sp.
Data set [9] addresses T7, FNPCP, CP of an uncharacterized NRP gene cluster from Fischerella.
T7 chain: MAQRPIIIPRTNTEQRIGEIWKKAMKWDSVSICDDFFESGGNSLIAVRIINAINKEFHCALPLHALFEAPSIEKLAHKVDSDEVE

Data set [10] has as its target T8, FNsACP, homolog of ArCPNp from Fischerella.
T8 chain: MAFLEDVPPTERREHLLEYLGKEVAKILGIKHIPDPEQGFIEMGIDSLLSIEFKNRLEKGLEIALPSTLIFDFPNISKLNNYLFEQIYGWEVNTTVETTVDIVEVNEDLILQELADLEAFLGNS

The target in data set [11] is T9, FisPCP, PCP of the shinorine gene cluster from Fischerella.
T9 chain: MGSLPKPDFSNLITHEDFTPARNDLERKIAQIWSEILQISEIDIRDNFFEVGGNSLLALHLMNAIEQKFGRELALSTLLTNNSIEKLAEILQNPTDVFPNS

What is called Km is the substrate concentration at which the rate is half of its maximum. Broadly, the kcat is the maximal rate divided by the concentration of active sites. One may read the kcat/Km as the turnover number divided by the Michaelis constant.

B1: SePPT, Sfp-like phosphopantetheinyl transferase (PPTase) from Synechococcus elongatus PCC7942 (protein)
chain: MQRPNPSDAVPVPSIPSCDRGPIPNPVTWRTSPEPLFLSAQTVHLWRCSLTRSLSSAEQAIVAADCDRAQAYGSNRRHQFLCGRWWLRQLLSLYLPEEPADFRFQLSPTGKPELPQSNLCFNLSHSGSTLLIAIAWQPVGVDVEQPRSRSWLALARRYFPSAELAAMQQSTDCDRWGLASWVCKEAWIKAQGRTLANSLRHLQCAWTANGQPRLSGLGSEESQVQLLQVDPQEQLWAAIAMPAGWNYQTWTAAIIRKNH
Consider B1, for which the “relative activity (most active PPTase = 100%)” value in [1] and in data set [4] was “SePPT demonstrated strong activity toward two ACPs of FASs but no others” in each case. Besides, the “phosphopantetheinylation of CP (apo to holo), LC-MS; no activity” value in data set [2] is “SePPT showed no activity toward APNPCP, MACP, ScACP, and SsPCP”; in data set [3], “SePPT showed no activity toward APNPCP, MACP, ScACP, and SsPCP”; in data set [5] it was “SePPT showed no activity toward APNPCP, MACP, ScACP, and SsPCP”; in [6], “SePPT showed no activity toward APNPCP, MACP, ScACP, and SsPCP”.

B2: FPPT, Sfp-like phosphopantetheinyl transferase (PPTase) from Fischerella sp. PCC9339 (protein)
chain: MGSETNHLWLTAPTNLTLLPDDVHVWRISLDRPESELQALQTTLSSDEIARAQRFYFEQHRQRFVAGRGILRTILGRYLGVEPQAVEFTYELRGKPLLADRFADSGVSFNLSHSQDLALCGVSRNRKIGIDVEYMRSVSDVEALAERFFAPREYEVVRSLPSNQQQQVFFRYWTCKEAYLKAIGVGIVQLEKVEISLTLEQPAKLITDEEWSLIELVPGDHYLGAVAIAGQNLDLKYWQY
With B2, the “phosphopantetheinylation of CP (apo to holo), LC-MS; no activity” value in [2], in data set [3] and in data set [5] was “FPPT shared the same substrate scope as SePPT with the exception of its low activity toward SsPCP” throughout. In addition, the “relative activity (most active PPTase = 100%)” value in data set [3] was “FPPT was not competent to activate SsPCP, APACP, APNPCP, MACP, and ScACP”; in data set [6], “FPPT was not competent to activate SsPCP, APACP, APNPCP, MACP, and ScACP”. The “phosphopantetheinylation of CP (apo to holo), LC-MS; low activity” value in [6] was “FPPT shared the same substrate scope as SePPT with the exception of its low activity toward SsPCP”.

B3: Sfp, phosphopantetheinyl transferase from Bacillus subtilis (protein)
chain: MKIYGIYMDRPLSQEENERFMTFISPEKREKCRRFYHKEDAHRTLLGDVLVRSVISRQYQLDKSDIRFSTQEYGKPCIPDLPDAHFNISHSGRWVIGAFDSQPIGIDIEKTKPISLEIAKRFFSKTEYSDLLAKDKDEQTDYFYHLWSMKESFIKQEGKGLSLPLDSFSVRLHQDGQVSIELPDSHSPCYIKTYEVDPGYKMAVCAAHPDFPEDITMVSYEELL
For the protein B3, the Km in data set [1] amounted to 11.6 µM; in [7] it was 15.3 µM; in data set [2], 12 µM; in data set [8], 9 µM; in data set [9] it was 11.7 µM; in data set [10], 10.9 µM. Further, the Michaelis constant (Km) was found to be 14 µM in data set [11]; 6.7 µM in data set [3]; 2.5 µM in data set [4]; 8.3 µM in data set [5]; 7.9 µM in data set [6]. In addition, the kcat in [1] came to 0.163 s⁻¹; in data set [7] it was 0.368 s⁻¹; in [2] it was 0.0367 s⁻¹; in data set [8], 0.0483 s⁻¹; in data set [9], 0.242 s⁻¹; in data set [10], 0.04 s⁻¹. Also, the turnover number (kcat) in data set [11] was determined as 0.0283 s⁻¹; in [3] it was 0.085 s⁻¹; in data set [4] it was 0.0367 s⁻¹; in [5] it was 0.253 s⁻¹; in [6] it was 0.278 s⁻¹. The kcat/Km in data set [1] came out at 13300 M⁻¹ s⁻¹; in data set [7], 25000 M⁻¹ s⁻¹; in data set [2] it was 3330 M⁻¹ s⁻¹; in [8], 5000 M⁻¹ s⁻¹; in data set [9], 20000 M⁻¹ s⁻¹; in data set [10], 3330 M⁻¹ s⁻¹. Further, the kcat/Km is 1670 M⁻¹ s⁻¹ in data set [11]; 13300 M⁻¹ s⁻¹ in data set [3]; 15000 M⁻¹ s⁻¹ in data set [4]; 30000 M⁻¹ s⁻¹ in [5]; 35000 M⁻¹ s⁻¹ in data set [6]. In addition, the “phosphopantetheinylation of CP (apo to holo), LC-MS” value in data set [1] is “APPT, AvPPT, MPPT and Sfp functionalized all substrates”; in data set [7], “APPT, AvPPT, MPPT and Sfp functionalized all substrates”; in [2] it was “APPT, AvPPT, MPPT and Sfp functionalized all substrates”; in data set [8] it was “APPT, AvPPT, MPPT and Sfp functionalized all substrates”; in data set [9] it was “APPT, AvPPT, MPPT and Sfp functionalized all substrates”; in [10], “APPT, AvPPT, MPPT and Sfp functionalized all substrates”. Also, the “phosphopantetheinylation of CP (apo to holo), LC-MS” value in [11] is “APPT, AvPPT, MPPT and Sfp functionalized all substrates”; in [3], “APPT, AvPPT, MPPT and Sfp functionalized all substrates”; in data set [4], “APPT, AvPPT, MPPT and Sfp functionalized all substrates”; in data set [5], “APPT, AvPPT, MPPT and Sfp functionalized all substrates”; in data set [6] it was “APPT, AvPPT, MPPT and Sfp functionalized all substrates”. In addition, the “relative activity (most active PPTase = 100%)” value in data set [5] was “Among all PPTases, Sfp showed the highest relative activity toward ScACP and SsPCP”; in [6], “Among all PPTases, Sfp showed the highest relative activity toward ScACP and SsPCP”.
